Kd data for two molecules are collected here from article PMC9258321 (2022).

Where two headings read alike, the source gives them in different places. Ends that are not written are not given here.

The target of assay [1] is Kelch domain of Keap1. In words: SPR.
Assay [2] addresses Kelch domain of Keap1. The assay can be described thus: SPR. The source holds these as a separate data set.

Sequence of Kelch domain of Keap1 (chain, as listed by the source): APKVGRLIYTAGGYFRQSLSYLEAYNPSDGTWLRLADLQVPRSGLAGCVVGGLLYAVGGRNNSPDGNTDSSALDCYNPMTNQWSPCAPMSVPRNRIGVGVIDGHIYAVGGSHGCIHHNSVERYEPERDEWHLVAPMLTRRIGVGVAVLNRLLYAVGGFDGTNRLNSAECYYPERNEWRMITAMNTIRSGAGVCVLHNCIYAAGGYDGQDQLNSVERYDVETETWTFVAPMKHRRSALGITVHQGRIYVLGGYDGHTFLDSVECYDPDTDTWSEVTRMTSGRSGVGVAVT

As for GCPPCASGCSPETGEFCWREDDCPPC (disulfide (positions not given here); not fully specified) [drp3-a], the Kd with Kelch domain of Keap1 [1] amounted to 277 nM.

B1: drp3, minor oxidized product (peptide)
chain: GCPPCASGCSPETGEFCWREDDCPPC
modifications: disulfide (positions not given here); also: oxidized (disulfides), pairing of this isomer not given here
On to B1, for which the Kd with Kelch domain of Keap1 [2] came out at 415 nM. This lies in the sub-micromolar range.
